Experimental data reported in PMC11705640, “Tubulointerstitial nephritis antigen-like 1 promotes the progression of liver fibrosis after HCV eradication with direct-acting antivirals” (International Journal of Biological Sciences, 2025).

Biological target: T1, recombinant human TINAGL1 protein (tubulointerstitial nephritis antigen-like 1), C-6×His (human, UniProt Q9GZM7 22-467)
T1 construct: tubulointerstitial nephritis antigen-like 1 (TINAGL1), human, recombinant; Bought protein; Held on the Ni-NTA chip by its C-terminal His tag; also called rhTINAGL1; source: bought: Novoprotein (Cat# CB22); not shown: His6, C-terminal, kept
T1 sequence (looked up): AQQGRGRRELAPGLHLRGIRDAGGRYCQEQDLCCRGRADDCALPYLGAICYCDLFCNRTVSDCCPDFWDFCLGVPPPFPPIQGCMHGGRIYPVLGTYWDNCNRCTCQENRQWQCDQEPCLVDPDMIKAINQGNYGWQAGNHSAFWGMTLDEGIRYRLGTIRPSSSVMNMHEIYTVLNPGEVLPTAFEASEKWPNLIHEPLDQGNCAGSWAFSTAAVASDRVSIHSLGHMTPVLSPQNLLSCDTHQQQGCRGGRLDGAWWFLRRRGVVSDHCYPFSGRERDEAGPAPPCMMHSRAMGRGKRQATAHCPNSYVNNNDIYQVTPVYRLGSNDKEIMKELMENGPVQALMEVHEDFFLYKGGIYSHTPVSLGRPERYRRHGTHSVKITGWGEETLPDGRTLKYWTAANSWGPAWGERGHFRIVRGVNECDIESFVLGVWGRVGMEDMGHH
Experiment: SPR; rhTINAGL1 (C-6×His) immobilised on Ni-NTA chip (Reichert 4SPR, 40 mM nickel sulfate); dilution series of rhPDGF-BB in PBST injected at 62.5 μL/min; association 4 min, dissociation 5 min; TraceDrawer v1.8.1
Settings: both partners purified

B1: recombinant human PDGF-BB (platelet-derived growth factor-BB) (ligand, UniProt P01127 82-190, looked up)
chain: SLGSLTIAEPAMIAECKTRTEVFEISRRLIDRTNANFLVWPPCVEVQRCSGCCNNRNVQCRPTQVQLRPVQVRKIEIVRKKPIFKKATVTLEDHLACKCETVAAARPVT
notes: platelet-derived growth factor subunit B, human, recombinant PDGF-BB; also called rhPDGF-BB; source: bought: Peprotech (Cat# 100-14B)
  Kd: 185 nM
